Measurements taken from patent publication US10913781B2, “Pepducin design and use” (Tufts Medical Center, Inc., priority 2011, dated 2021).
Where two headings read alike, the source gives them in different places. Blank lines part the entries; values can stand above or below the compound they belong to. Peptide text beside a SMILES is read from it. * marks the point of attachment. Palmitoyl = CCCCCCCCCCCCCCCC(=O)*

Assays:
PAR2 [1] = molecular target: T1, PAR2 (Homo sapiens, UniProt P55085); assay: Agonist | (%)^‡; design: SW620 colon adenocarcinoma cells that endogenously express PAR2; endogenous in cells; host or cells: SW620 (in A7 the SW620 cells were additionally stably transfected with PAR1)
VEGF-A production = assay: Thrombin-dependent VEGF-A production in A549 cells (ELISA); format: cell-based, human; conditions: A549, 18 hours thrombin treatment
Experimental: (§1) FIG. 13 illustrates that monotherapy with PAR1-i3 pepducins inhibits tumor progression of A549 xenografts. (A) and (B): A549 mice treated with vehicle, P1pal-7, P1pal-i1-11, P1pal-10S, X1/2-i1, X1/2-i3, or Avastin. Each time point represents the mean±SE. (C): Final tumor volume at the completion of the experiment was calculated as a percentage of untreated vehicle control. (D): Serum-starved A549 adenocarcinoma cells were pretreated with P1pal-7, P1pal-10S, P1pal-i1-11, vehicle, or PD98059 and stimulated with thrombin. VEGF production was assessed by enzyme-linked immunosorbent assay. Data are expressed as mean±SD (*P<0.05, **P<0.01).
Because the i3-based P1pal-7 pepducin had similar efficacy as Avastin in suppressing lung tumor growth of A549 xenografts, VEGF-A production was measured in the A549 tumor cells after 18 hours thrombin treatment. […] Unlike in ovarian cancer, no increase was found in PAR1-mediated IL-8 production in A549 cells, consistent with the observed lack of efficacy of CXCR1/2 pepducins in the A549 xenograft models. These xenograft data provide support for the role of a novel PAR1-ERK1/2-VEGF paracrine pathway that is an effective therapeutic target in the A549 adenocarcinoma lung cancer model.

PAR2 [2] = molecular target: T1, PAR2; assay: Agonist | (%)^†; design: SW620 colon adenocarcinoma cells that endogenously express PAR2; endogenous in cells; host or cells: SW620 (in A7 the SW620 cells were additionally stably transfected with PAR1); conditions: 4 µM
Experimental: (§2) (A) Agonist and antagonist activity of third intracellular (i3) loop PAR2 pepducins (structure shown on top) using calcium flux assays with SW620 colon adenocarcinoma cells that endogenously express PAR2. Each column of three calcium flux traces corresponds to the i3 pepducin sequence shown above. The top row is the agonist activity of 3-4 μM pepducin and the middle row is the agonist activity of 14-15 μM pepducin. […] Final concentration of DMSO vehicle was 0.2%. […] (C) Agonist activity for each pepducin from (A) is reported as initial velocity of calcium flux at 4 μM pepducin (†), or at 14-15 μM pepducin (‡).

PAR2 [3] = molecular target: T1, PAR2; assay: Antagonist | (% inhibition); design: SW620 colon adenocarcinoma cells that endogenously express PAR2; endogenous in cells; host or cells: SW620 (in A7 the SW620 cells were additionally stably transfected with PAR1); conditions: 6 µM
Experimental: as §2

PAR2 [4] = molecular target: T1, PAR2; assay: Calcium flux screen for PAR2 pepducin agonist and antagonist activity in SW620 cells; format: cell-based; design: SW620 colon adenocarcinoma cells that endogenously express PAR2; endogenous in cells; host or cells: SW620 (in A7 the SW620 cells were additionally stably transfected with PAR1); conditions: for Antagonist activity (inhibition of SLIGRL calcium flux, area under the curve): 6 μM pepducin, 1 min pretreatment, against 100 μM SLIGRL; for Agonist activity (calcium flux): 3-4 μM and 14-15 μM pepducin
Experimental: as §2

A549 xenografts = format: in vivo, mouse
Experimental: as §1
PAR1 expression level is correlated with reduced survival of patients with NSCLC. To define the relative importance of PAR1 in lung tumor progression, in vivo mouse models were used. […] An A549 lung adenocarcinoma xenograft model in nude mice was used to evaluate monotherapy with P1pal-7, P1pal-10S, P1pal-i1-11, or the VEGF antagonist Avastin.

[5] = Pharmacokinetics of PAR1 pepducins in CF-1 mice, plasma LC/MS/MS; format: in vivo, mouse; conditions: 10 mg/kg s.c.
Experimental: FIG. 14 illustrates pharmacokinetics of PAR1 pepducins. (A): CF-1 mice were injected subcutaneously with P1pal-7 (3 mg/kg, open circles), P1pal-7 (10 mg/kg, closed circles), P1pal-10S (10 mg/kg, gray circles), or P1pal-i1-11 (10 mg/kg, open squares) in 20% dimethyl sulfoxide and blood was collected at indicated time points (n=3). Pepducin levels in plasma were quantified with LC/MS/MS. (B): Daily (D1 to D6) plasma levels of P1pal-7 after subcutaneous injection of 10 mg/kg P1pal-7 were measured at 1 hour (open circles) and 24 hours (open squares).
Pharmacokinetics of plasma levels of P1pal-7, P1pal-10S, and P1pal-i1-11 at 30 minutes, and at 1, 2, 4, 6, 8, and 16 hours was measured by LC/MS/MS to determine steady-state pepducin drug levels and the rate of elimination from mice. Subcutaneous injections of P1pal-7 (3 mg/kg or 10 mg/kg) into wild-type CF-1 mice (25 to 30 g) was followed by blood collection at various time points from the vena cava. […] Residual P1pal-7 levels were 10 nmol/L at the 16-hour time point. After the 4-hour plateau, the elimination rate was linear from 4 to 16 hours. The peak plasma level of 3 mg/kg P1pal-7 reached 0.6 μmol/L at 2 hours and elimination was linear between 2 hours and 16 hours. P1pal-10S (10 mg/kg) gave similar peak plasma level of 1.0 μmol/L as P1pal-7 (10 mg/kg) at 1 hour.
Lastly, the peak plasma level of P1pal-7 (10 mg/kg) was measured before and 1 hour after once-daily subcutaneous injection over 6 days to determine whether the peak plasma levels were consistent on daily administration.

PAR1 = molecular target: T2, PAR1 (Homo sapiens, UniProt P25116); assay: ERK1/2 phosphorylation in A549 cells (thrombin or […]), Western blot; format: cell-based; design: endogenous in cells; host or cells: A549, HOP62, H1299, H522, H226, HOP92 lung carcinoma lines; conditions: A549 cells; pepducin 0.1-3 μM
T2 sequence (P25116 22-425): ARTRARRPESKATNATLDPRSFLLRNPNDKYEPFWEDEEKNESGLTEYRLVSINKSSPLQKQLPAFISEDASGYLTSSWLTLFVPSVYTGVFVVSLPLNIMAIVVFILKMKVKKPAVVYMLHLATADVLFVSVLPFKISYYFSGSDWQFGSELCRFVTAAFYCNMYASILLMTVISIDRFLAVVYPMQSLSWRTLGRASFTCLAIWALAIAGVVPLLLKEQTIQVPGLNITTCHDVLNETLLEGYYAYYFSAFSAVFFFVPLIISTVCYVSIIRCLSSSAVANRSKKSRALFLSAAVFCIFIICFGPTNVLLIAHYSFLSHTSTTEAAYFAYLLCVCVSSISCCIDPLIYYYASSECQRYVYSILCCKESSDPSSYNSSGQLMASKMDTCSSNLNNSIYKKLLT
Experimental: FIG. 9 illustrates that differential inhibition of PAR1-ERK activation by i3- and i1-derived PAR1 pepducins. (A-C): Western blots of lysates from A549 cells untreated, or treated with thrombin, SLIGKV (SEQ ID NO:29), or AYPGKF (SEQ ID NO:5). Indicated samples were pretreated with various concentrations (0.1 to 3 μmol/L) of P1pal-7, P1pal-10S, or P1pal-i1-11 before stimulation and immunoblotted with anti-phospho-ERK. (D-F): Quantification of the Western blots in (A-C) were conducted by densitometry and results are expressed relative to maximum (fold max) phosphorylation of pERK.
(B): A549 cells stimulated with 10 μM […] over 2 h. A549 cells pretreated with 0.1 μM P1pal-7 and stimulated with 10 μM […] (SEQ ID NO:30) for 5 min. Total ERK was used as a loading control.
Last, there has been a great deal of interest in understanding the mechanism of PAR1-mediated activation of MAP kinase cascade and PAR1-dependent cellular growth and differentiation, proliferation and gene transcription. […] The effects of i1 versus i3 PAR1 pepducins on ERK1/2 activation were examined in the A549 lung adenocarcinoma cell line. […] Inhibition experiments with a range of pepducin concentrations (0.1-3 μM) were conducted. […] The […] (SEQ ID NO:30) peptide gave a rapid and transient ERK1/2 phosphorylation signal that peaked at 5-15 min after stimulation. […] To determine the specificity of the PAR1 pepducin inhibitors, their effects on the closely related PAR2 and PAR4 receptors were also tested.

[6] = test system: A549, HOP62, and HOP92 lung carcinoma cell lines; assay: Cytotoxicity/cell viability of lung carcinoma cells (MIT assay); format: cell-based, human; conditions: 3-day period

Compound: COc1cccc(-c2cc(=O)c3ccccc3o2)c1N [PD98059, reference compound]
Effect on thrombin-dependent VEGF-A production (VEGF-A production): could suppress

Compound: P2pal-18F: palmitoylated PAR2 pepducin, K287 to F, first three residues (R267, M268, L269) deleted; SEQ ID NO:19 (Palmitoyl-RSSAMDENSEKKRKRAIF-NH2) [listing 1 of 2 here]
Agonist | (%)^† (PAR2 [2]): 5%
Agonist | (%)^‡ (PAR2 [1]): 35%
Antagonist | (% inhibition) (PAR2 [3]): 0 % inhibition

Compound: Avastin: VEGF antibody; VEGF antagonist [reference compound]
Inhibition of tumor progression/growth (final tumor volume vs vehicle) (A549 xenografts; monotherapy, nude mice): 75%

Compound: P2pal-14GF: N-terminally truncated palmitoylated PAR2 pepducin, M274 to G and K287 to F; SEQ ID NO:23 (Palmitoyl-GDENSEKKRKRAIF-NH2) [listing 2 of 2 here]
Agonist | (%)^† (PAR2 [2]): 3%
Agonist | (%)^‡ (PAR2 [1]): 8%
Antagonist | (% inhibition) (PAR2 [3]): 0 % inhibition

Continued, in another order:

Agonist | (%)^‡ (PAR2 [1]): 16%
Compound: P2pal-18Q: palmitoylated PAR2 pepducin, R284 replaced by glutamine; SEQ ID NO:22 (Palmitoyl-RSSAMDENSEKKRKQAIK-NH2) [listing 1 of 2 here]

Agonist activity (calcium flux) (PAR2 [4]): no significant agonist
Compound: P2pal-14GF: N-terminally truncated palmitoylated PAR2 pepducin, M274 to G and K287 to F; SEQ ID NO:23 (Palmitoyl-GDENSEKKRKRAIF-NH2) [listing 1 of 2 here]
Antagonist activity (inhibition of SLIGRL calcium flux, area under the curve) (PAR2 [4]): no significant agonist or any detectable antagonist activity

Clearance / plasma half-life in words [5]: rapid clearance after 1 hour
Tmax ([5]; CF-1, mouse, plasma, sc, read-out: Time of peak plasma level): 1 h
Cmax ([5]; mouse, plasma, sc, CF-1 mice, read-out: Peak plasma level): 1000 nM
Effect on thrombin-induced ERK1/2 phosphorylation (PAR1): complete inhibition
Compound: CCCCCCCCCCCCCCCC(=O)N[C@@H](CC(N)=O)C(=O)N[C@@H](CCCNC(=N)N)C(=O)N[C@@H](CO)C(=O)N[C@@H](CCCCN)C(=O)N[C@@H](CCCCN)C(=O)N[C@@H](CO)C(=O)N[C@@H](CO)C(=O)N[C@@H](C)C(=O)N[C@@H](CC(C)C)C(=O)N[C@@H](Cc1ccccc1)C(N)=O [P1pal-10S] (Palmitoyl-NRSKKSSALF-NH2)
Inhibition of tumor progression/growth (final tumor volume vs vehicle) (A549 xenografts; mouse, in vivo): 40%
Sensitivity of A549 cells (cytotoxicity) [6]: most sensitive
Effect on thrombin-dependent VEGF-A production (VEGF-A production): partially blocked

Agonist activity (calcium flux) (PAR2 [4]): nearly no agonist activity
Compound: P2pal-18Q: palmitoylated PAR2 pepducin, R284 replaced by glutamine; SEQ ID NO:22 (Palmitoyl-RSSAMDENSEKKRKQAIK-NH2) [listing 2 of 2 here]

Agonist activity (calcium flux) (PAR2 [4]): restored agonist activity
Compound: P2pal-18SF: palmitoylated PAR2 pepducin, R284 to S and K287 to F; SEQ ID NO:21 (Palmitoyl-RSSAMDENSEKKRKSAIF-NH2) [listing 1 of 2 here]

Antagonist activity (inhibition of SLIGRL calcium flux, area under the curve) (PAR2 [4]): devoid of antagonist activity
Compound: P2pal-18F: palmitoylated PAR2 pepducin, K287 to F, first three residues (R267, M268, L269) deleted; SEQ ID NO:19 (Palmitoyl-RSSAMDENSEKKRKRAIF-NH2) [listing 2 of 2 here]
Agonist activity (calcium flux) (PAR2 [4]): slight decrease in agonist activity at lower concentration

Agonist | (%)^† (PAR2 [2]): 8%
Agonist | (%)^‡ (PAR2 [1]): 30%
Antagonist | (% inhibition) (PAR2 [3]): 57 % inhibition
Compound: P2pal-18SF: palmitoylated PAR2 pepducin, R284 to S and K287 to F; SEQ ID NO:21 (Palmitoyl-RSSAMDENSEKKRKSAIF-NH2) [listing 2 of 2 here]
